Patent US20100285988A1

What was measured:
[1] = target: γ-secretase (human; HeLa cell membrane / solubilized HeLa membrane; endogenous in HEK293 cells) (human) (UniProt P49768); assay: cell-based or functional assay
[2] = target: γ-secretase (mouse; mouse brain membrane, N2A neuroblastoma cells) (mouse); assay: cell-based or functional assay

αCTF-FLAG (recombinant α-secretase cleaved APP C-terminal fragment) (from UniProt P05067 688-770)
inhibition of X40 production, αCTF at 0.25 µM [1]: 24% | inhibition of X40 production, αCTF at 0.5 µM [1]: 32% | inhibition of X40 production, αCTF at 1.0 µM [1]: 60% | suppression of γ-secretase activity for Aβ production from 1 µM βCTF, αCTF at 0.25 µM [1]: 66% | suppression of γ-secretase activity for Aβ production from 1 µM βCTF, αCTF at 0.5 µM [1]: 71% | suppression of γ-secretase activity for Aβ production from 1 µM βCTF, αCTF at 1.0 µM [1]: 82%

βCTFΔ (Aβ17-23 deleted form of βCTF)
rate of γ-secretase activity for Aβ38 production relative to βCTF (HeLa membrane) [1]: < 10 fold | secreted Aβ40 from transfected HEK293T cells relative to SPβCTF (ECL) [1]: 10 fold | reaction rate of γ-secretase, 40-site production, relative to βCTF (mouse brain membrane) [2]: 25 fold | reaction rate of γ-secretase, 42-site production, relative to βCTF (mouse brain membrane) [2]: 11 fold

recombinant βCTF with the Flemish mutation (A21G) (from UniProt P05067 672-770)
reaction rate of γ-secretase (Aβ40 production in vitro) relative to WT βCTF [1]: 3 fold
